Four molecules from US20210087268A1 (YUHAN, published 2021) can be followed below.

The chains are these.
B1: F04-10-IgG1 (antibody, V domains shown)
VH: EVQLLESGGGLVQPGGSLRLSCAASGFTFSSYYMSWVRQAPGKGLEWVSSIGSGSPSSTYYADSVKGRFTISRDNSKNTLYLQMNSLRAEDTAVYYCARSSYSGGNGYYYYAYAFDYWGQGTLVTVSS
VL: EIVLTQSPGTLSLSPGERATLSCRASQSVSSSYLAWYQQKPGQAPRLLIYGASSRATGIPDRFSGSGSGTDFTLTISRLEPEDFAVYYCQQGYHRYATFGQGTKVEIK
notes: also called antibody based on the F04-10 clones
B2: 10A7 antibody (antibody, V domains shown)
VH: EVQLVESGGGLTQPGKSLKLSCEASGFTFSSFTMHWVRQSPGKGLEWVAFIRSGSGIVFYADAVRGRFTISRDNAKNLLFLQMNDLKSEDTAMYYCARRPLGHNTFDSWGQGTLVTVSS
VL: DIVMTQSPSSLAVSPGEKVTMTCKSSQSLYYSGVKENLLAWYQQKPGQSPKLLIYYASIRFTGVPDRFTGSGSGTDYTLTITSVQAEDMGQYFCQQGINNPLTFGDGTKLEIKR
B3: S64-39-IgG1 (antibody, V domains shown)
VH: EVQLLESGGGLVQPGGSLRLSCAASGFTFSNYAMSWVRQAPGKGLEWVSGISPSGSSIYYADSVQGRFTISRDNSKNTLYLQMNSLRAEDTAVYYCAKAIRTCSLSHCYYYYGMDVWGQGTLVTVSS
VL: QSVLTQPPSASGTPGQRVTISCSSSSSNIGSNAVNWYQQLPGTAPKLLIYYDNQRPSGVPDRFSGSKSGTSASLAISGLRSEDEADYYCATWDYSLSGYVFGGGTKLTVL
notes: also called 564-39-IgG1 [sic]; antibody based on the S64-39 clones
B4: S64-39-IgG4 (antibody, V domains shown)
VH: B3 VH
VL: B3 VL
notes: also called 564-39-IgG4 [sic]

The first test deals with T1, human TIGIT expressed on CHO-S cells (CHO-hTIGIT) (human, UniProt Q495A1 22-244).
T1 construct: also called CHO-TIGIT cell line; TIGIT on the cell surface
T1 sequence: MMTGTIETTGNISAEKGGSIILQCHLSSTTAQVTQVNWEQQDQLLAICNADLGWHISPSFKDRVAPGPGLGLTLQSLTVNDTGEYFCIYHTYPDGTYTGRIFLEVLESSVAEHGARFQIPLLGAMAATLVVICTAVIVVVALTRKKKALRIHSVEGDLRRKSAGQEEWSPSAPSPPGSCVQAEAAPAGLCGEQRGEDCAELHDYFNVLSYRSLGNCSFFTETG
As to the kind of experiment: flow cytometry on CHO-TIGIT cells. The procedure: In order to identify the binding ability of the three types of anti-TIGIT antibodies produced in Example 2 to TIGIT expressed on the cell surface, TIGIT-overexpressing CHO cell line (hereinafter referred to as CHO-TIGIT cell line) was treated with anti-TIGIT antibodies and then the anti-TIGIT antibodies bound to TIGIT on the cell surface were detected using a fluorescence flow cytometer.
Specifically, the CHO-TIGIT cell line was cultured in a 5% CO2 incubator at 37° C. for 48 to 72 hours using a chemical composition medium (CD FortiCHO Chemically Defined Medium+8 mM L-Glutamine+20 μg/mL Blasticidin+1% Anti-clumping agent). The cultured CHO-TIGIT cell line was harvested by centrifugation, diluted in FACS solution (PBS+5% FBS), and dispensed at a density of 1×10⁵ cells/well in a 96-well round bottom plate (Corning). Then, in order to completely remove the chemical composition medium remaining on the cell surface, the FACS solution was added, centrifuged at 2,000 rpm for 3 minutes and washed three times to remove the supernatant. The washed CHO-TIGIT cell line was re-suspended by addition of 100 μL of FACS solution. The anti-TIGIT antibody of each concentration, which was diluted to 2 times the final concentration using the FACS solution, was added at 100 μL to a 96-well round bottom plate in which the CHO-TIGIT cell line was dispensed, and incubated at 4° C. for 1 hour. Then, in order to remove the anti-TIGIT antibody remaining in the supernatant, without binding to the TIGIT on the cell surface, the FACS solution was added to each well, centrifuged at 2,000 rpm for 3 minutes, and washed three times to remove the supernatant. Then, in order to detect anti-TIGIT antibody bound to TIGIT on the cell surface, a goat anti-human IgG (H+L) cross-adsorbed secondary antibody (Invitrogen) was diluted to 10 μg/mL using a FACS solution, and 100 μL of the diluted antibody was incubated at 4° C. for 1 hour. After washing three times, each sample was transferred to a 12×75 mm tube (BD Biosciences) and analyzed using a fluorescence flow cytometer.
B1 displayed an EC50 of 0.0164 µg/mL.

B2 came in with an EC50 of 0.0165 µg/mL.

In turn, B3 had an EC50 of 0.069 µg/mL.

On to B4, for which the midpoint of the response, the EC50, lay at 0.0808 µg/mL.

The target in another test is T2, TIGIT expressed on cells (TIGIT-expressing effector cell line of the Promega kit); TIGIT-overexpressing NK92 … (UniProt Q495A1 22-244, limits assumed).
T2 sequence (looked up): T1 sequence
The test can be described thus: cell-based or functional assay.
As for B1, the “binding inhibition (EC50), TIGIT/CD155 blockade assay, luminescence fold response” value (from here on “binding inhibition … luminescence fold response”) turned out to be 23.9 nM.

As to B3, the “binding inhibition … luminescence fold response” value is 581 nM.

For the molecule B4, the “binding inhibition … luminescence fold response” value was 1080 nM.

For a further test, the target named is T3, human TIGIT-Fc (rhTIGIT-Fc, R&D Systems) (human, UniProt Q495A1 22-141).
T3 construct: Bought protein; also called human TIGIT (rhTIGIT-Fc); not shown: Fc part of the bought fusion protein
T3 sequence: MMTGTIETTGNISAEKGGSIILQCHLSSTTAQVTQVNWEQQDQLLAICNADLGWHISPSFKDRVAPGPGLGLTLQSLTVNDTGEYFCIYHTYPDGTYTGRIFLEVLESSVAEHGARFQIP
As to the kind of experiment: SPR (BIAcore T200), antibody immobilised on CM5 chip, TIGIT-Fc flowed. From the text:
(§1) In order to measure binding abilities of the three types of anti-TIGIT antibodies produced in Example 2 to human TIGIT (rhTIGIT-Fc) and mouse TIGIT (rmTIGIT-Fc), surface plasmon resonance (SPR) using a BIAcore T200 (GE Healthcare) was used. The SPR method is based on the principle that the refractive index of light passing through a sensor chip changes according to the state of a substance coated on the sensor chip. When an antigen or antibody was made to flow into the chip coated with the antigen or antibody, the refractive index is changed due to binding therebetween and the affinity (KD) value is calculated from the measured value.
(§2) An anti-TIGIT antibody was immobilized on a Series S CM5 sensor chip (GE Healthcare) to a level of 500 RU using a 10 mM acetate solution (pH 4.0) and an amine coupling kit (GE Healthcare). […] The association of the TIGIT-Fc proteins was measured at a rate of 30 μL/min for 600 seconds, the dissociation was measured for 2,000 seconds, and the regeneration was carried out in a 10 mM glycine solution (pH 1.5) at a rate of 100 μL/min for 25 seconds.
B1 showed a Kd of 0.533 nM, a koff of 3.76e-05 s⁻¹ and a kon of 70500 M⁻¹ s⁻¹.

In the case of B2, binding was characterised by a dissociation constant (Kd) of 1.19 nM, the koff was found to be 0.000193 s⁻¹ and the kon stood at 162000 M⁻¹ s⁻¹.

In turn, B3 yielded a Kd of 1.31 nM, a dissociation rate constant (koff) of 4.41e-05 s⁻¹ and a kon of 33700 M⁻¹ s⁻¹.

On to B4, for which the Kd was determined as 1.15 nM, the koff was 3.23e-05 s⁻¹ and the kon was 28200 M⁻¹ s⁻¹.

In another test the target is T4, mouse TIGIT-Fc (rmTIGIT-Fc, R&D Systems) (mouse, UniProt P86176 29-148, limits assumed).
T4 construct: Bought protein; also called mouse TIGIT (rmTIGIT-Fc); not shown: Fc part of the bought fusion protein
T4 sequence (looked up): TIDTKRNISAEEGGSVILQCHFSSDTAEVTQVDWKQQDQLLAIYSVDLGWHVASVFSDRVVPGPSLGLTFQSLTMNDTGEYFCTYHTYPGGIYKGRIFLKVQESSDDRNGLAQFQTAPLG
The test is described as above.
Text: as §1, §2
B1: the Kd was 0.245 nM, the koff was 2.93e-05 s⁻¹ and the kon was 120000 M⁻¹ s⁻¹.

With B2, the Kd was 0.182 nM, the koff stood at 8.91e-05 s⁻¹ and the kon turned out to be 490000 M⁻¹ s⁻¹.

Regarding B3, binding was characterised by a dissociation constant (Kd) of 3.2 nM, the koff was determined as 0.000201 s⁻¹ and the kon worked out at 62800 M⁻¹ s⁻¹.

B4 showed a Kd of 3.12 nM, a koff of 0.000194 s⁻¹ and a kon of 62200 M⁻¹ s⁻¹.
